Consider one molecule from PMC6195255, “EBP1 nuclear accumulation negatively feeds back on FERONIA-mediated RALF1 signaling”.

This data set addresses T1, EBP1-GST (UniProt Q96327-3 1-401).
T1 sequence: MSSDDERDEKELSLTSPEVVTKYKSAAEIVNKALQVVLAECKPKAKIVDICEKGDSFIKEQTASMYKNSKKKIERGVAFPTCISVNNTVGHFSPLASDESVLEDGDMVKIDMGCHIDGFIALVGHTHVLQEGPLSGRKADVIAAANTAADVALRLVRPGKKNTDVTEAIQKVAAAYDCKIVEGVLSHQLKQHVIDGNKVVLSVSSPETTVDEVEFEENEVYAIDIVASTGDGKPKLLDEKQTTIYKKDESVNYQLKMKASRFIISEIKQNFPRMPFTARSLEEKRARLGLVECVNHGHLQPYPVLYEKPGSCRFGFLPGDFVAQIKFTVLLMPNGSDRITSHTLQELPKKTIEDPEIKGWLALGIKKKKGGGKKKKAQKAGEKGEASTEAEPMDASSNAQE
The data set can be described thus: EMSA; 100 ng EBP1-GST, 100 pg probe; competition with unlabeled CCACGTC DNA; 10 mM Tris pH 7.5, 50 mM KCl, 1 mM MgCl2, 5% glycerol, 0.5 mM DTT, 0.2 mg/mL BSA, 0.5 mg/mL polyglutamate; room temperature 20 min; 6% native PAGE. To be noted: protein: recombinant; tags: GST; label: FITC; blunt. In general terms: In EMSA bound probe runs differently from free probe, usually more slowly.

B1: CML38 promoter CCACGTC probe (dsDNA)
DNA 1: AACACTAATCTACCACGTCTATTACACACA
DNA 2: TGTGTGTAATAGACGTGGTAGATTAGTGTT
As for B1, the binding result is “binds”.
